Data taken from patent US20230140200A1, “COMPOSITIONS AND METHODS FOR DETECTING CELLS UNDERGOING FERROPTOSIS USING AN ANTIBODY” (THE TRUSTEES OF COLUMBIA UNIVERSITY IN THE CITY OF NEW YORK, priority 2020, published 2023).
Entries after “also recorded” stand apart in the source; their conditions may differ.

Key:
mouse liver tissues = assay: Staining of normal mouse liver frozen tissue
Description: (§1) FIGS. 12A-12B show 3F3 FMA staining in human Huntington's disease brains and mouse tissues. In FIG. 12A, human HD and control brain tissues were fixed in 4% PFA for 24 h, perfused in 30% sucrose for 24 h, and stained with DAPI (nuclei, blue) and 3F3 FMA (red). The expression level of TfR1 is low. There was no difference between HD and control groups. In FIG. 12B, mouse liver tissues and mouse GBM tissues were fixed and stained with DAPI (nuclei, blue) and 3F3 FMA (red). 3F3 FMA was able to recognize mouse TfR1.

[1] = system: B cell lymphoma mouse xenograft tumor tissue (SU-DHL-6 cells); assay: Staining of B cell lymphoma mouse xenograft tumor tissue sections; details: 40 mg/kg IKE once daily IP for 14 days
Description: Tumor tissues were fixed in 4% paraformaldehyde (PFA) for 24 h at 4° C. followed by washing with PBS three times. The tissues were perfused in 30% sucrose for 24 h at 4° C. for cryo-protection. The samples were embedded in OCT cryostat sectioning medium, and then moved directly into a cryostat. After equilibration of temperature, frozen tumor tissues were cut into 5 μm thick sections. Tissue sections were mounted on to poly-L-lysine coated slides by placing the cold sections onto warm slides. Slides were stored at −80° C. until staining. For staining, slides were warmed to room temperature followed by washing with PBS twice. A hydrophobic barrier pen was used to draw a circle on each slide. The slides were permeabilized with PBS with 0.4% Triton X-100 (PBT) twice before non-specific-binding blocking by incubating the sections with 10% goat serum (ThermoFisher 50197Z) for 30 min at room temperature. […] All images were captured on a Zeiss LSM 800 confocal microscope at Plan-Apochromat 63×/1.40 Oil DIC objective with constant laser intensity for all analyzed samples. The intensity above threshold of the fluorescent signal of the bound antibodies was analyzed using NIH ImageJ software (ImageJ, RRID:SCR_003070). Data were expressed as fold change comparing with the vehicle. […]

A-673 cells = assay: Immunofluorescence in A-673 cells; type: cell-based, human; details: 1 μM RSL3, 4 h
mouse TfR1 = biological target: T1, mouse TfR1 (Mus musculus, UniProt Q62351); assay: Staining of mouse glioblastoma paraffin-embedded tissue; details: paraffin-embedded GBM tissue
T1 construct: We evaluated 3F3-FMA staining in mouse glioblastoma (GBM) paraffin-embedded tissue samples; from tissue; host or cells: mouse glioblastoma (murine glioma model, c57/B6 mice), paraffin-embedded brain sections
T1 sequence (Q62351 whole entry): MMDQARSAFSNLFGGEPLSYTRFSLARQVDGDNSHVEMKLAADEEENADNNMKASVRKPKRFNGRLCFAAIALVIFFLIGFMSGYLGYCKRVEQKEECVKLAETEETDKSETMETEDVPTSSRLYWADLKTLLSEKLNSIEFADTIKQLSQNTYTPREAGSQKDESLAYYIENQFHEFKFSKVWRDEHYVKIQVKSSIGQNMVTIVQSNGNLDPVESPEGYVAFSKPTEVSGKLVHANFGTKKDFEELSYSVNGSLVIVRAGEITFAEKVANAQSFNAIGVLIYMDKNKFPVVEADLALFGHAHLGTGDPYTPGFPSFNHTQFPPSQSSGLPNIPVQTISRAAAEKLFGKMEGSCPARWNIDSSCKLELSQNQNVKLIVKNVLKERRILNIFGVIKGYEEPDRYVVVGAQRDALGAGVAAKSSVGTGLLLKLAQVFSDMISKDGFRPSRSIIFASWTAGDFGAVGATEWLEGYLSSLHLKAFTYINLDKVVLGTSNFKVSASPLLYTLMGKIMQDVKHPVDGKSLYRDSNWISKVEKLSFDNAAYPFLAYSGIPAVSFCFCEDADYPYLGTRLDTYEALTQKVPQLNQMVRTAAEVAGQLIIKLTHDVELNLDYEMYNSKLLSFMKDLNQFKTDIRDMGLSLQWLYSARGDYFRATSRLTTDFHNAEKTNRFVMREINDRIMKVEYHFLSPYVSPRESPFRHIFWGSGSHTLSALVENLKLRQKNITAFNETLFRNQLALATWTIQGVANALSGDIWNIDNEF
Description: All procedures were performed according to the Columbia University Medical Center Institutional Animal Care and Use Committee. Murine glioma cell lines were created from tumor bearing mice. These tumors were generated by injection of a PDGF-IRES-Cre retrovirus into the subcortical white matter of mice with floxed PTEN and/or p53 (Sonabend et al., 2013). After mice reached end stage, the tumors were dissociated and primary cell cultures were created. These cells harbored the specific mutations of the original tumors, and could be re-injected to form gliomas in c57/B6 mice with high fidelity. Briefly, mice between the ages of 6-8 weeks received 50,000 murine glioma cells through stereotactic injection after being anesthetized with a ketamine/xylazine cocktail (87.5 mg/12.5 mg w/w). After cessation of toe-pinch reflex, the scalp was shaved and cleaned with serial use of betadine and 70% ethanol swabs. An incision was made and the skull was exposed. A burr hole was created, 2 mm anterior, 2 mm lateral and 2 mm deep to the right of the bregma. The cells were injected into the subcortical white matter over a period of 3 minutes (0.333 μL/min). Once the injection ceased, the needle was left in place for 1 minute before being slowly withdrawn. After tumor developed, brains were harvested and fixed in 4% paraformaldehyde and embedded in paraffin. 5 micron sections were made for staining.

HT-1080 cells [2] = assay: Flow cytometry staining without permeabilization; type: cell-based, human; details: vs DMSO
SK-BR-3 cells = assay: Immunofluorescence in SK-BR-3 cells; type: cell-based, human; details: 1 μM RSL3, 4 h
human brain tissues = assay: Staining of post-mortem Huntington's disease and control brain tissues; details: HD and control groups
Description: as §1

HT-1080 cells [3] = assay: Immunofluorescence staining of treated cells, quantification of membrane intensity; type: cell-based, human
Huh-7 cells = assay: Immunofluorescence in Huh-7 cells; type: cell-based; details: 1 μM RSL3, 4 h

B1: 3F3-FMA: Murine monoclonal IgG1 raised against ferroptotic membrane fractions; antigen is transferrin receptor protein 1 (TfR1) (antibody, V domains shown)
VH: EVLLQQSGTELVRPGALVKLSCKASGFNIQDLYIHWVKQRPEQGLEWIGWIDPETDNTIYDPKFQGKASITADTSSNTAYLQLSSLTSEDTAMYYCSTGLLQWYFDVWGAGTAVTVSS
VL: DIVMTQSPSSLAMSIGQKVTMRCKSSQSLLNSYNQKNCLAWYQQKPGQSPKLLLYFVSTRESGVPDRFIGSGSGTDFTLTISSVQAEDLADYFCQQHYSTPLTFGAGTKLELK
Mouse liver tissues
  staining signal in normal liver tissue: robust signal
[1]
  antibody staining intensity in IKE-treated vs vehicle tumor tissue: did not detect its antigen; also recorded: no difference
A-673 cells
  3F3-FMA staining upon ferroptosis induction: concentrated at the cell boundaries and became brighter
Mouse TfR1
  recognition of TfR1 in tumor samples: able to recognize mouse TfR1 protein
HT-1080 cells [2]; 1 μM RSL3, 4 h
  antibody staining intensity by flow cytometry in RSL3-treated cells: increased intensities
HT-1080 cells [2]; 1 μM STS, 6 h
  antibody staining intensity by flow cytometry in STS-induced apoptosis: decreased intensity; also recorded: decreased intensities
SK-BR-3 cells
  3F3-FMA staining upon ferroptosis induction: concentrated at the cell boundaries and became brighter
Human brain tissues
  staining signal in brain tissue: lack of signal
HT-1080 cells [3]; 1 μM RSL3, 4 h
  co-localization with GM130 (Golgi marker): located in the Golgi
  co-localization with Tom20 (mitochondria) and PDI (ER) markers: not visible in mitochondria or the ER
HT-1080 cells [3]; 1 μM RSL3, 4 h, vs DMSO
  antibody staining / membrane intensity in RSL3-induced ferroptosis: stained cell boundaries and the inside puncta became brighter
HT-1080 cells [3]; 1 μM STS, 6 h
  antibody staining on cell surface in STS-induced apoptosis: wasn't detected
HT-1080 cells [3]; 2 μM camptothecin, 24 h
  antibody membrane intensity in camptothecin-induced apoptosis: no significant increase
HT-1080 cells [3]; 1 mM H2O2, 4 h
  antibody membrane intensities in H2O2-treated cells: didn't observe increased membrane intensities
Huh-7 cells
  3F3-FMA staining upon ferroptosis induction: concentrated at the cell boundaries and became brighter
